Earlier results, collected in PMC3196573.

Experiments:
[1] = biological target: ALK3 (Homo sapiens) (UniProt P36894)
[2] = biological target: ALK6 (Homo sapiens) (UniProt O00238)
UniProt O00238, sequence (O00238 14-126): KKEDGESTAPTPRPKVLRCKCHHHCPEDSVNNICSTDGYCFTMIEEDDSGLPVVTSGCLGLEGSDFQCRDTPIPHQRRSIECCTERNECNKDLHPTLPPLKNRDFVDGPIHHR

UniProt P36894, sequence (P36894 24-152): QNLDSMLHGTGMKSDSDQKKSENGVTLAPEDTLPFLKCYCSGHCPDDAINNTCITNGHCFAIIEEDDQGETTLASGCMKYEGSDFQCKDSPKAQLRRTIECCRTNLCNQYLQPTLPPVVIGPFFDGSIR

Kd [1]: 0.9 nM
Kd [2]: 3.6 nM
Substance: BMP2 (from UniProt P12643)
